Patent US20170204167A1 (INSTITUTE FOR RESEARCH IN BIOMEDICINE, published 2017)

What was measured:
[1] = target: T1, HA of H1N1 A/New Caledonia/20/99 (influenza A virus H1N1 A/New …); assay: cell-based or functional assay
[2] = target: T2, HA of H1N1 A/Solomon Islands/3/06 (influenza A virus H1N1 A/Solomon …); assay: cell-based or functional assay
HA of H3N2 A/CA/7/04 = HA of H3N2 A/CA/7/04 (influenza A virus H3N2 A/CA/7/04); assay: cell-based or functional assay
HA of H3N2 A/WI/67/05 = HA of H3N2 A/WI/67/05 (influenza A virus H3N2 A/WI/67/05); assay: cell-based or functional assay
[3] = target: T1, HA of H1N1 A/New Caledonia/20/99; assay: ELISA on recombinant or purified HA
[4] = target: T2, HA of H1N1 A/Solomon Islands/3/06; assay: ELISA on recombinant or purified HA

Row | Binder | Neutralization of infectious viruses (IC50, µg/ml) [1] | Neutralization of infectious viruses (IC50, µg/ml) [2] | Neutralization of infectious viruses (IC50, µg/ml) (HA of H3N2 A/CA/7/04) | Neutralization of infectious viruses (IC50, µg/ml) (HA of H3N2 A/WI/67/05) | EC50 [3] | EC50 [4]
1 | FI6 variant 2 (antibody, V domains shown) VH: QVQLVQSGGGVVQPGRSLRLSCVASGFTFSTYAMHWVRQAPGRGLEWVAVISYDGNYKYYADSVKGRFSISRDNSNNTLHLEMNTLRTEDTALYYCAKDSQLRSLLYFEWLSQGYFDPWGQGTLVTVTS VL: DIQMTQSPDSLAVSLGARATINCKSSQSVTFNYKNYLAWYQQKPGQPPKVLIYWASARESGVPDRFSGSGSGTDFTLTISSLQAEDVAVYYCQQHYRTPPTFGQGTKVEIK | 6.3 µg/mL | 8.8 µg/mL | 7.9 µg/mL | 12.5 µg/mL | 0.015 µg/mL | 0.018 µg/mL
2 | FI28 variant 1 (antibody, V domains shown) VH: EVQLVESGGGAVQPGESLKLSCAASGFTFSNYGMHWVRQAPGKGLEWVAVISYDGSNKYYADSVKGRFTISRDNSKDTLYLQMNSLRAEDTALFYCAKERPLRLLRYFDWLSGGANDYWGQGTLVTVSS VL: DIVMTQSPDSLAVSLGERATINCKSSQSVLYSSNNKNYLAWYQQKPGQPPKLLIDWASTRESGVPDRFSGSGSGTDFTLTISNLQVEDVAVYYCQQYYRSPSFGQGTKLEIK | > 100 µg/mL | > 100 µg/mL | > 100 µg/mL | > 100 µg/mL | – | –
3 | FI6 variant 3 (antibody, V domains shown) VH: QVQLVESGGGVVQPGRSLRLSCAASGFTFSTYAMHWVRQAPGKGLEWVAVISYDANYKYYADSVKGRFTISRDNSKNTLYLQMNSLRAEDTAVYYCAKDSQLRSLLYFEWLSQGYFDYWGQGTLVTVSS VL: not shown | – | – | – | – | 0.017 µg/mL | 0.019 µg/mL
